Fewer inactive variants are shown than the library holds.
B1: TPR 5TU (parent)
chain: GGAUCUUCUCGAUCUAACAAAAAAGACAAAUCUGCCACAAAGCUUGAGAGCAUCUUCGGAUGCAGAGGCGGCAGCCUUCGGUGGCGCGAUAGCGCCAACGUUCUCAACUAUGACACGCAAAACGCGUGCUCCGUUGAAUGGAGUUUAUCAUG

Variants of: B1
Test: polymerase ribozyme fitness, log enrichment relative to wild type (log ratio); higher = more active; in vitro selection for triplet polymerase activity
Method in brief: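 After PCR construction and transcription, each subunit's mutant library from a heterodimeric triplet polymerase ribozyme was annealed with a biotinylated primer, the partner subunit and triplets. Incubation was frozen, at −7 °C, and extended constructs were gel-excised, bound to streptavidin beads and amplified by RT-PCR, in one selection round done in triplicate. Fitness is the logarithm of a genotype's enrichment divided by that of the wild type, from inverse-variance-weighted replicate averages of Illumina-sequenced inputs and outputs. The base of the logarithm is 2, and genotypes needed ≥10 input reads and ≥1 read per output.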

Variant | polymerase ribozyme fitness (log ratio)
GGAUCUUCUCGAGCUAAGAAAAAAGACAAAUCUGCCACAAAGCUAGAGAGCAUCUUCGUAUGCAGAGGCGGCAGCCUUCGGUGGCGCGAUAGCGCCAACGUUCGCAACUAUGACACGCAAAACGCGUGCUCCGCUGAAUUGAGAUUAUCAUG | ≤ -4.2
GGAUCUUCUCGAGCUAACAAAAAAGACGAAUCUGCCACAAAGCUUGAGAGCAACUUCGGAUGCUGAGGCGGCAGCCUUCGGUGGCGCGAUAGCGCCAACGUUCUCAACUAUGACACGCAAAACGCGUGCUCCGUUGAAUGUAGUGUAUCAUA | ≤ -4.2
GGAUCUUCUCGAGCUAACAAAAAAGACAAAUCUGCCACAAAGCUUGAGAGCAUCUUCGGAUGCAGAGGCGGCAGCCUUCGGUGGCGCGAUAGCGCCAACGUUCUCAACUAUGACACGCAAACCGCGUGCUCCGUUGAAUGGCGUUUAUCAUG | -2.05
GGAUCUUCUCGAGCUAACAAAAAAGACAAAUCUGCCACAACGCUUGAGAGCAUCUUCGGAUGCAGAGGCGGCAGCCUUCGGUGGCGCGAUAGCGCUAACGUUCUCAUCUAUGACACGCAAAACGCGUGCUACAUUGAAUGGAGUUCAUCAUG | ≤ -4.2
GGAUCUUCUCGAGCUAACAAAAAAGACAAAUCUGCCACAUAGCUUGAGAGCAUCUUCGGCUGCAGAGGCGGCAGCCUUCGGUGGCGCGAUAGCGCCAACGUUCUCAACUAUGACACGCAAAACGCGUGCUCCGUUGAAUGGAGUUUAUCAUG | ≤ -4.2
GGAUCUUCUCGAGCUAACAAAAAAGACAAAUCUGCCACAAAGCUUGAGAGCAUGUUCGGAUGCAGAGGCGGCAGCCUUCGGUGGCGCGAUAGCGCCAACGUUCUCAACUAUGACACGCAAAACGCGUGCUCCGUUGAAUGGAGUUUAUCAUG | -3.62
GGAUCUUCUCGAGCUAACAAAAAAGACAAAUCUGCCACAUAGCUUGAGAGCAUCUUCGGAUGCAGAGGCGGCAGCCUUCGGUGGCGCGAUAGCGCGAACGUUCUCAACUAUGACACGCAAGACGCGUGCUCCGUUGAAUGGAGUUUAUCAUG | -2.57
GGAUCUUCUCGAGCUAACAAAAAAGUCAAAUGAGCCACAAAGCUUGAGAGCAUGUUCGGAUGCAGUGGCGGCAGCCUUCGGUGGCGCGAUAGCGCCAACGUUCUCAACUAUGACACGAAAAACGCGUGCUCCGUUGAAUGGAGAUUAUCAUG | ≤ -4.2
GGAUCUUCUCGAGCUAACAAAAAAGACAAAUCUGCCACAAAGCUUGAGAGCAUCUUCGGAUGCAGAGGCGGCAGCCUUCGGUGGAGCGAUAGCGCCAACGUUCUCAACUAUGACACGCAAAACGCGUGCUCCGUUGAAUGGAGUUUAUCAUG | -2.23
GGAUCUUCUCGAGCUAACAAAAAAGACAAAUCUGCCACAAAGCUUGAGAGCAUCUUCGGAUGCAGAGGCGGCAGCCUUCGGUGGUGCGAUAGCGCCAACGUUCUCAACUAUGACACGCAAAACGCGUGCUCCGUUGAAUGGAGUUUAUCAUG | -1.63
GGAUCUUCUCGAGCUAACAAAAAAGACAAAUCUGCCAUAAAGCUUGAGAGCAUCUUCGGAUGUAGAGGCGGCAGCUUUCGGUGGCGCGAUGGGGUCAACGUUCUCAACUAUGACACGCAAAACGCGUGCUCCGUUGAAUGGAGUUUAUUAUG | ≤ -4.2
GGAUCUUCUCGAGCUAACAAAAAAGUCAAAUCUGCCACAAAGCUUGAGAGCAUCUUCGGAUGCAGAGGCGGCAGCCUUCGGUGGCGCGAUAGCGCGAACGUUCUCAACUAUGACACGCAGAACGCGUGCUCCGUUGAAUGGAGUUUAUCAUG | ≤ -4.2
GGAUCUUCUCGAGCUAACAAAAAAGACAAAUCUGCCACAAAGCUUGAGAGCAUCUUAGGAUGCAGAGGCGGCAGCCUUCGGUGGCGCGAUAGCGCCAACGUUCUCAACUAUGACACGCAAAACGCGUGCUCCGUUGAAUGGAGUUUAUCAUG | -0.243
GGAUCUUCUCGAGCUAACAAAAAAGACAAAUCUGACACAAAGCUUGAGAGCCUCUUCGGAUGCAGAGGCGGCAGCCUUCGGUGGCGCGAUAGCGCCAACGUUCUCAACUAUGACACGCAAAACGCGUGCUCCGUUGAAUGGAGUUUAUCAUG | ≤ -4.2
GGAUCUUCUCGAGCUAACAAAAAAGACAAAUCUGUCACAAAGCUUGAGAGCAUCUUCGGAUGCAGAGGCGGUAGCCUUCGGUGGCGCGAUAGCGCGAACGUUCUUAACUAUGACACGCAAAACGCGUGCUCCCUUGAAUGGAGUUUAUCAUG | ≤ -4.2
GGAUCUUCUCGAGCUAACAAAAAAGACAAAUCUGCCACAAAGCUUGGGAGCAUCAUCGGAUGCAGAGGCGGCAGCCUUCGGUGGCGUGAUAGCGCUAACGUUCUCAACUAUGACACGCAAAACGCGUGCUCCGUUGAAGGGAGUUUAUCAUG | ≤ -4.2
GGAUCUUCUCGAGCUAACAAAAAAGACAAAUCUGCCACAAAGCUUGAGAGCAUCUUCGGAUGCAGAGGCGGCAGACUUCGGUGGCGCGAUAGCGCCAACGUUCUCAAGUAUGACACGCAAAACGCGUGCUCCGUUGAAUGGAAUUUAUCAUG | ≤ -4.2
GGAUCUUCUCGAGGUAACAAAAAAGACAAAGCUGCCACAAAGCUUGAGAGCAUCUUCGGAUGCAGAGGCGGCAGCCUUCGGUGGCGCGAUAGCGCCAACGUUCUCAACUAUGACACGCAAAACGCGUGCUCCGUUGAAUGGAGUUUAUCAUG | -1.43
GGAUCUUCUCGAGCUAACAAAAAAGACAUAUCUGCCACAAAGCUUGAGAGCAUCUUCGGAUGCAGAGGCGGCAGCCUUCGGUGGCGCGAUAGUGCCAACGUUCUCAACUAUGACACGCAAAACGCGUGGUCCGUUGAAUGGAGUUUAUCAUG | ≤ -4.2
